Results: US7629437

Recombinant human βI tryptase, sequence (chain, as listed by the source): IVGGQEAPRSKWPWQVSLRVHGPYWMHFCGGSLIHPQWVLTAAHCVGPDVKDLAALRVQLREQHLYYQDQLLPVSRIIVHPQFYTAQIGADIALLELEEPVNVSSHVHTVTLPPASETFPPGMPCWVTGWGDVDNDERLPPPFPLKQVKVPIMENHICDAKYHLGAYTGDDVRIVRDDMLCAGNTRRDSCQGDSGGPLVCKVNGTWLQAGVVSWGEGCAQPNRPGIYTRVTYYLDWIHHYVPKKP

Recombinant human βI tryptase
Km (Ac-PRTK-ACC): 14.7 µM
kcat (Ac-PRTK-ACC): 18.7 s⁻¹
kcat/Km (Ac-PRTK-ACC): 1.27e+06 M⁻¹ s⁻¹
Km (Ac-PRNR-ACC): 16.5 µM
kcat (Ac-PRNR-ACC): 21.8 s⁻¹
kcat/Km (Ac-PRNR-ACC): 1.31e+06 M⁻¹ s⁻¹
Km (Ac-PANK-ACC): 110 µM
kcat (Ac-PANK-ACC): 20.3 s⁻¹
kcat/Km (Ac-PANK-ACC): 180000 M⁻¹ s⁻¹
Km (Ac-PRNK-ACC): 8.9 µM
kcat (Ac-PRNK-ACC): 16.8 s⁻¹
kcat/Km (Ac-PRNK-ACC): 1.89e+06 M⁻¹ s⁻¹
preference (kcat/Km) over Ac-PRTK-ACC (Ac-PRNK-ACC): A minimal preference, approximately two-fold, for P2-asparagine over P2-threonine

Recombinant human βII tryptase
Km (Ac-PRTK-ACC): 23.4 µM
kcat (Ac-PRTK-ACC): 18.3 s⁻¹
kcat/Km (Ac-PRTK-ACC): 780000 M⁻¹ s⁻¹
Km (Ac-PRNR-ACC): 18.6 µM
kcat (Ac-PRNR-ACC): 20.9 s⁻¹
kcat/Km (Ac-PRNR-ACC): 1.12e+06 M⁻¹ s⁻¹
Km (Ac-PANK-ACC): 133 µM
kcat (Ac-PANK-ACC): 19.1 s⁻¹
kcat/Km (Ac-PANK-ACC): 140000 M⁻¹ s⁻¹
Km (Ac-PRNK-ACC): 14.5 µM
kcat (Ac-PRNK-ACC): 17.8 s⁻¹
kcat/Km (Ac-PRNK-ACC): 1.23e+06 M⁻¹ s⁻¹
preference (kcat/Km) over Ac-PRTK-ACC (Ac-PRNK-ACC): A minimal preference, approximately two-fold, for P2-asparagine over P2-threonine

Human thrombin
Km (Ac-Nle-Thr-Pro-Lys-ACC): 125 µM
kcat (Ac-Nle-Thr-Pro-Lys-ACC): 33.7 s⁻¹
kcat/Km (Ac-Nle-Thr-Pro-Lys-ACC): 280000 M⁻¹ s⁻¹
Km (Ac-Leu-Gly-Pro-Lys-AMC): 160 µM
kcat (Ac-Leu-Gly-Pro-Lys-AMC): 2.3 s⁻¹
kcat/Km (Ac-Leu-Gly-Pro-Lys-AMC): 15000 M⁻¹ s⁻¹
Km (Ac-Leu-Gly-Pro-Lys-ACC): 195 µM
kcat (Ac-Leu-Gly-Pro-Lys-ACC): 3.2 s⁻¹
kcat/Km (Ac-Leu-Gly-Pro-Lys-ACC): 18000 M⁻¹ s⁻¹
Km (Ac-Nle-Thr-Pro-Lys-AMC): 115 µM
kcat (Ac-Nle-Thr-Pro-Lys-AMC): 31 s⁻¹
kcat/Km (Ac-Nle-Thr-Pro-Lys-AMC): 260000 M⁻¹ s⁻¹
